T1: p73CT (Homo sapiens, UniProt O15350 104-383)
T1 sequence: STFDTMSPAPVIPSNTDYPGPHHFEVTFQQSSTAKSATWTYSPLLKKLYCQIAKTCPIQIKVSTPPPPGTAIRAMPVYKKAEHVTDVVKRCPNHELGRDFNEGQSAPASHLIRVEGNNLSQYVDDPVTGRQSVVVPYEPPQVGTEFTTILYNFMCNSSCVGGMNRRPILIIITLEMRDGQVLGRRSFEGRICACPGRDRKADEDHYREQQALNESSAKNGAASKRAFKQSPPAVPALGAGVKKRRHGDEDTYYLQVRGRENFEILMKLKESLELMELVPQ

T2: ΔNp73β (Homo sapiens, UniProt O15350-9 1-450)
T2 sequence: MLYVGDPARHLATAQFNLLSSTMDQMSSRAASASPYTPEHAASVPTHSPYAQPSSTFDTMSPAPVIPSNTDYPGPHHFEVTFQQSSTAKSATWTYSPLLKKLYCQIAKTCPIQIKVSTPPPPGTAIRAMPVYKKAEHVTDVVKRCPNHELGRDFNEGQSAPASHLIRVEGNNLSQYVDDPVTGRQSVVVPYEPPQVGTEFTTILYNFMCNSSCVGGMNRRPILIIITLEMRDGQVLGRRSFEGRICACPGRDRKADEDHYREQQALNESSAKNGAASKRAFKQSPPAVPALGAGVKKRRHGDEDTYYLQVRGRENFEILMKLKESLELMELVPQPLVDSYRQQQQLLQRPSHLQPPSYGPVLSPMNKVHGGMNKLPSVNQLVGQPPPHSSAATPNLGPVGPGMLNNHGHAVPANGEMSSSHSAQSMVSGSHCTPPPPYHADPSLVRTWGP

T3: ΔNp63β (Homo sapiens, UniProt Q9H3D4-4 1-461)
T3 sequence: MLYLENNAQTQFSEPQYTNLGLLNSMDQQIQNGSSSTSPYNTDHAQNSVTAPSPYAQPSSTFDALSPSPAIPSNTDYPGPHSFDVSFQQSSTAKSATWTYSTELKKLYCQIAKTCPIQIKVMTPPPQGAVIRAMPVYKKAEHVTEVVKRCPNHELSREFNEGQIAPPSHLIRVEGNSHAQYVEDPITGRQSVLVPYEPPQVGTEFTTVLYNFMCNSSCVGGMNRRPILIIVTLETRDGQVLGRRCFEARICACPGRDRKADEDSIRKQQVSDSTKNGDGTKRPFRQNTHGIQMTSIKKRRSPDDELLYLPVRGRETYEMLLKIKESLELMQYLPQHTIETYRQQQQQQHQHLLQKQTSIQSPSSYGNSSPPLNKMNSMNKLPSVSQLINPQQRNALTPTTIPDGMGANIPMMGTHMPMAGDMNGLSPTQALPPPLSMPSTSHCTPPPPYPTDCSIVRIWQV

T4: ΔNp63α (Homo sapiens, UniProt Q9H3D4-2 1-586)
T4 sequence: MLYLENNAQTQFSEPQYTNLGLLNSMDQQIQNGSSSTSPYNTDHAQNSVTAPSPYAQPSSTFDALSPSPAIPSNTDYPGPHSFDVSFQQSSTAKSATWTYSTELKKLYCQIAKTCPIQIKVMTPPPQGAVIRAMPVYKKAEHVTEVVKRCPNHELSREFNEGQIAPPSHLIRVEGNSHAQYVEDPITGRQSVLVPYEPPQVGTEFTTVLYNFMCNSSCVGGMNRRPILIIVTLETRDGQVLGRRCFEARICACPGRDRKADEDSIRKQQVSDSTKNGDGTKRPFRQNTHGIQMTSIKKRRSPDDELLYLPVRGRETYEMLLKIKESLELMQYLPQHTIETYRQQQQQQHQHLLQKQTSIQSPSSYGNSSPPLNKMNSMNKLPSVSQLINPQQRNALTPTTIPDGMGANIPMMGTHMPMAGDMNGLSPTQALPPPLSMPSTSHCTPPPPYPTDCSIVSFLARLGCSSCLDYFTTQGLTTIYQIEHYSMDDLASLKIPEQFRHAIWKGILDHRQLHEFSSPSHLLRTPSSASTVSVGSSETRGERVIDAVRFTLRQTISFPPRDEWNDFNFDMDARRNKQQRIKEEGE

B1: Ref competitor (dsDNA)
DNA 1: CGCGGACATGTCCGGACATGTCCCGC
DNA 2: GCGGGACATGTCCGGACATGTCCGCG
B2: Ref_Alexa488 (dsDNA)
DNA 1: GGACATGTCCGGACATGTCC
DNA 2: GGACATGTCCGGACATGTCC

Experiments:
p73CT [1] = target: T1, p73CT; assay: fluorescence anisotropy competition titration; 25 mM sodium phosphate (purification buffer pH 7.2), 225 mM NaCl, 10% v/v glycerol, 5 mM DTT, 0.2 mg/mL BSA, 22 C; settings: protein: recombinant; tags: N-terminal 6xHis-lipoyl-TEV tag, cleaved; chain copies: 4
ΔNp73β = target: T2, ΔNp73β; assay: fluorescence anisotropy, direct; 25 mM NaPi, 225 mM NaCl, 10% v/v glycerol, 5 mM DTT, 0.2 mg/mL BSA, 22°C; 20 nM labelled DNA; pH not stated for the binding assay; settings: protein: recombinant; tags: N-terminal 6xHis-lipoyl-TEV tag, cleaved; chain copies: 4; label: 5'-Alexa488
ΔNp63β = target: T3, ΔNp63β; assay: as above; settings: protein: recombinant; tags: N-terminal 6xHis-lipoyl-TEV tag, cleaved; chain copies: 4; label: 5'-Alexa488
Xlp53 = Xlp53 (Xenopus laevis, UniProt Q7T1D0 1-362); assay: as above; settings: protein: recombinant; tags: N-terminal 6xHis-lipoyl-TEV tag, cleaved; chain copies: 4; label: 5'-Alexa488
p73CT [2] = target: T1, p73CT; assay: as above; settings: protein: recombinant; tags: N-terminal 6xHis-lipoyl-TEV tag, cleaved; chain copies: 4; label: 5'-Alexa488
Hsp53 = Hsp53 (Homo sapiens, UniProt P04637 1-393); assay: as above; settings: protein: recombinant; tags: N-terminal 6xHis-lipoyl-TEV tag, cleaved; chain copies: 4; label: 5'-Alexa488
ΔNp63α = target: T4, ΔNp63α; assay: as above; settings: protein: recombinant; tags: N-terminal 6xHis-lipoyl-TEV tag, cleaved; chain copies: 4; label: 5'-Alexa488

Hsp53, sequence (P04637 whole entry): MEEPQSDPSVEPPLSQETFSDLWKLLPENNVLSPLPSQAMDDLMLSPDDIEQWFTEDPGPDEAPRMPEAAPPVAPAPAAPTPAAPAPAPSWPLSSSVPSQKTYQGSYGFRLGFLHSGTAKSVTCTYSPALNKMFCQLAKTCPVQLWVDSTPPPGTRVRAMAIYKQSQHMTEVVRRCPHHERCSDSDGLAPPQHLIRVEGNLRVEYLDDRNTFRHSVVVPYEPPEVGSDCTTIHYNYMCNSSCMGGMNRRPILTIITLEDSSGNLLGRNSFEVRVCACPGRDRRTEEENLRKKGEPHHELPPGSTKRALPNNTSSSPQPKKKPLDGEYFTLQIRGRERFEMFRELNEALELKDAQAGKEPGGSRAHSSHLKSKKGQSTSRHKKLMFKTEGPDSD
Xlp53, sequence (Q7T1D0 entry or part of it): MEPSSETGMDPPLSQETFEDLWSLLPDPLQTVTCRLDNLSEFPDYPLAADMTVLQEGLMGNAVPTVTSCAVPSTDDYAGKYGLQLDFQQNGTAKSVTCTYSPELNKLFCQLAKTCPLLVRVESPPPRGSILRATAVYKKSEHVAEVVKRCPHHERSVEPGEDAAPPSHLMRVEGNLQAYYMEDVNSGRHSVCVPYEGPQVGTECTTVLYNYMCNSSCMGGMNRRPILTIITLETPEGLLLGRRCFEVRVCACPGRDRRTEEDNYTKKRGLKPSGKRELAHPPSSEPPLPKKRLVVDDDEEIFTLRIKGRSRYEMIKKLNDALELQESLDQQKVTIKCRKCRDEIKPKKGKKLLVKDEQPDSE

| Binder | Kd (p73CT [1]) [nM] | Kd (ΔNp73β) | Kd (ΔNp63β) | Kd (Xlp53) | Kd (p73CT [2]) | Kd (Hsp53) | Kd (ΔNp63α) |
| --- | --- | --- | --- | --- | --- | --- | --- |
| B1 | 148 |  |  |  |  |  |  |
| B2 |  | -7.26 ± 0.02 log10(M) | -7.13 ± 0.04 log10(M) | -7.32 ± 0.02 log10(M) | -6.62 ± 0.04 log10(M) | -7.25 ± 0.03 log10(M) | -7.12 ± 0.01 log10(M) |

Reference: PMC2807882, “Conservation of DNA-binding specificity and oligomerisation properties within the p53 family”
